This assay addresses T1, recombinant cynomolgus CCL2 (cynomolgus monkey, UniProt P61274 24-99).
T1 construct: also called cyCCL2; cynomolgus monkey CCL2
Nature of the assay: Gyrolab sandwich assay; detection reagent.

Description: A Gyrolab™ based method was used in this example. Recombinant cynomolgus CCL2 samples were prepared in assay buffer (PBS, 0.1% (v/v) Tween-20, 1% BSA) and analyzed on a Gyrolab Xplore. […] All reagents and samples were transferred to a 96-well PCR plate and loaded into the instrument together with a Gyrolab BioAffy 200 nL disc (Gyros Protein Technologies AB). A three-step assay protocol (200-3W-001) was selected. […] Each reagent reaches the column at the same time after a short spinning step is applied to the disc. The columns were washed with PBS with 0.05 Tween after each step and finally laser induced fluorescence values were recorded within the instrument. A non-linear 4-parameter curve-fitting function (Wiemer-Rodbard) was applied to the averaged raw data to obtain a calibration curve.

B1: humanized anti-CCL2 antibody 11K2 (CCL2-0002) (antibody, V domains shown)
VH: QVQLVQSGAEVKKPGSSVKVSCKASGLTISDTYMHWVRQAPGQGLEWMGRIDPANGNTKFDPKFQGRVTITADTSTSTAYMELSSLRSEDTAVYYCARGVFGFFDYWGQGTTVTVSS
VL: DIQMTQSPSSLSASVGDRVTITCKATEDIYNRLAWYQQKPGKAPKLLISGATSLETGVPSRFSGSGSGTDYTLTISSLQPEDFATYYCQQFWSAPYTFGGGTKVEIK
modifications: Used as a digoxigenin or Alexa 647 conjugate; conjugation sites not stated.
notes: Detection reagent; also called Humanized 11K2; 11K2-Dig
On to B1, for which the binding result is “binds”.

The values are drawn from patent publication US20230393125A1 (Hoffmann-La Roche, published 2023).
